In patent publication US20180222961A1 (IMMATICS BIOTECHNOLOGIES, published 2018):

The binders below were run against T1, HLA-B*07:02 (human) (assay: UV-exchange b2m ELISA; exchange-yield grade).
T1 construct: also called peptide-receptive MHC molecules
Text: Candidate peptides for T cell based therapies according to the present invention were further tested for their MHC binding capacity (affinity). The individual peptide-MHC complexes were produced by UV-ligand exchange, where a UV-sensitive peptide is cleaved upon UV-irradiation, and exchanged with the peptide of interest as analyzed. Only peptide candidates that can effectively bind and stabilize the peptide-receptive MHC molecules prevent dissociation of the MHC complexes. To determine the yield of the exchange reaction, an ELISA was performed based on the detection of the light chain (β2m) of stabilized MHC complexes. The assay was performed as generally described in Rodenko et al. (Rodenko et al., 2006).
96 well MAXISorp plates (NUNC) were coated over night with 2 ug/ml streptavidin in PBS at room temperature, washed 4× and blocked for 1 h at 37° C. in 2% BSA containing blocking buffer. Refolded HLA-A*02:01/MLA-001 monomers served as standards, covering the range of 15-500 ng/ml. Peptide-MHC monomers of the UV-exchange reaction were diluted 100-fold in blocking buffer. Samples were incubated for 1 h at 37° C., washed four times, incubated with 2 ug/ml HRP conjugated anti-β2m for 1 h at 37° C., washed again and detected with TMB solution that is stopped with […]. Absorption was measured at 450 nm. Candidate peptides that show a high exchange yield (preferably higher than 50%, most preferred higher than 75%) are generally preferred for a generation and production of antibodies or fragments thereof, and/or T cell receptors or fragments thereof, as they show sufficient avidity to the MHC molecules and prevent dissociation of the MHC complexes.

RPLFYVVSL and YPEGAAYEF fall in the same range of peptide exchange yield: 20 to 50% for the first, 20 to 50% for the second.

Compared with IPGPAQSTI, APLPRPGAVL is higher in peptide exchange yield: 20 to 50% for the first, 50 to 75% for the second.

First: RVRSRISNL
Second: EPKTATVL
The peptide exchange yield of the first is higher: 50 to 75% for the first, 20 to 50% for the second.

SPASRSISL and LPRPGAVL fall in the same range of peptide exchange yield: 50 to 75% for the first, 50 to 75% for the second.

Compared with APVIFSHSA, LPYFREFSM is higher in peptide exchange yield: 20 to 50% for the first, 50 to 75% for the second.

Compared with KPYGGSGPL, KPGPEDKL is lower in peptide exchange yield: 50 to 75% for the first, 20 to 50% for the second.

LPRGPLASLL and RVRSTISSL fall in the same range of peptide exchange yield: 50 to 75% for the first, 50 to 75% for the second.

SPRTEASSAVL and RPIVPGPLL fall in the same range of peptide exchange yield: 50 to 75% for the first, 50 to 75% for the second.

First: SPFSAEEANSL
Second: YPLRGSSI
The peptide exchange yield of the first is higher: 50 to 75% for the first, 20 to 50% for the second.

Compared with KVKSDRSVF, YPGFPQSQY is higher in peptide exchange yield: 10 to 20% for the first, 20 to 50% for the second.

SPMATTSTL and LPSDSHFKITF fall in the same range of peptide exchange yield: 50 to 75% for the first, 50 to 75% for the second.

RPLFQKSSM and FPDNQRPAL fall in the same range of peptide exchange yield: 50 to 75% for the first, 50 to 75% for the second.

RVEEVRALL and IPMAAVKQAL fall in the same range of peptide exchange yield: 50 to 75% for the first, 50 to 75% for the second.

First: VPVYILLDEM
Second: APRWFPQPTVV
The peptide exchange yield of the first is lower: 20 to 50% for the first, 50 to 75% for the second.

First: KPSESIYSAL
Second: VPDSGATATAY
The peptide exchange yield of the first is higher: 50 to 75% for the first, 20 to 50% for the second.

APTEDLKAL and TVREASGLL fall in the same range of peptide exchange yield: 50 to 75% for the first, 50 to 75% for the second.

GPREALSRL and SPTFHLTL fall in the same range of peptide exchange yield: 50 to 75% for the first, 50 to 75% for the second.

LPMWKVTAF and FPFQPGSV fall in the same range of peptide exchange yield: 50 to 75% for the first, 50 to 75% for the second.

First: RPAMNYDKL
Second: APRPASSL
The peptide exchange yield of the first is lower: 20 to 50% for the first, 50 to 75% for the second.

VPNQSSESL and YPLRGSSIF fall in the same range of peptide exchange yield: 50 to 75% for the first, 50 to 75% for the second.

RPAPFEVVF and FPQSQYPQY fall in the same range of peptide exchange yield: 50 to 75% for the first, 50 to 75% for the second.

Compared with SPAMTSTSF, SPNKGTLSV is higher in peptide exchange yield: 20 to 50% for the first, 50 to 75% for the second.

First: YPTEHVQF
Second: YPLRGSSIFGL
The peptide exchange yield of the first is lower: 20 to 50% for the first, 50 to 75% for the second.

LPYGPGSEAAAF and SPRENFPDTL fall in the same range of peptide exchange yield: 50 to 75% for the first, 50 to 75% for the second.

First: FPRLVGPDF
Second: SPSSPMSTF
The peptide exchange yield of the first is higher: 50 to 75% for the first, 20 to 50% for the second.

Compared with SPRRSPRISF, SPMTSLLTSGL is higher in peptide exchange yield: 20 to 50% for the first, 50 to 75% for the second.

First: APAAWLRSA
Second: YPRTITPGM
The peptide exchange yield of the first is lower: 20 to 50% for the first, 50 to 75% for the second.

SPSPVSSTL and SPSPVTSTL fall in the same range of peptide exchange yield: 50 to 75% for the first, 50 to 75% for the second.

TPGLRETSI and HPGSSALHY fall in the same range of peptide exchange yield: 20 to 50% for the first, 20 to 50% for the second.

SPHPVTALLTL and KPGTSYRVTL fall in the same range of peptide exchange yield: 50 to 75% for the first, 50 to 75% for the second.

APRAGSQVV and MPNLPSTTSL fall in the same range of peptide exchange yield: 50 to 75% for the first, 50 to 75% for the second.

VPDQPHPEI and IPRPEVQAL fall in the same range of peptide exchange yield: 50 to 75% for the first, 50 to 75% for the second.

Compared with SPGATSRGTL, TPWAESSTKF is lower in peptide exchange yield: 50 to 75% for the first, 20 to 50% for the second.

For SPQSMSNTL, the peptide exchange yield was 50 to 75%.
